Experimental data published in publication PMC8396345, “Target Affinity and Structural Analysis for a Selection of Norovirus Aptamers”.

B1: AG3 (ssDNA)
DNA: GCTAGCGAATTCCGTACGAAGGGCGAATTCCACATTGGGCTGCAGCCCGGGGGATCC
B2: Buf-2 (structured_DNA)
DNA: GAAATTGGGTTCGGGTTTGGGTTGGGATTACTTAGCGATG
B3: SMV19 (ssDNA)
DNA: CACCAGTGTGTTGAGGTTTGAGCACACTGATAGAGTGTCA
B4: M6-2 (ssDNA)
DNA: TGGGAAGAGGTCCGGTAAATGCAGGGTCAGCCCGGAGAG
B5: Beier (ssDNA)
DNA: GTCTGTAGTAGGGAGGATGGTCCGGGGCCCCGAGACGACGTTATCAGGC
B6: M1 (ssDNA)
DNA: TGTTTATGGGGATAAACGTATCTAATTCGTGTACTAATCA
B7: SMV21 (ssDNA)
DNA: CCATGTTTTGTAGGTGTAATAGGTCATGTTAGGGTTTCTG

Columns and labels:
[1] = molecular target: T1, norovirus GI.1 VLP (major capsid protein VP1) (Norovirus GI.1, UniProt Q83884 1-530); test: filter binding; Kd not determined; FRA: 1 nM 32P-aptamer, 0-1500 nM VLP, 60 min, each aptamer's original selection buffer (M1, M6-2, SMV19, SMV21: PBS pH 7.4; others in Table S1, not in material); FRA temperature not stated; pull-down at room temperature; details: protein: recombinant, chain copies: 180, label: 5'-32P (FRA)
T1 sequence (Q83884 whole entry): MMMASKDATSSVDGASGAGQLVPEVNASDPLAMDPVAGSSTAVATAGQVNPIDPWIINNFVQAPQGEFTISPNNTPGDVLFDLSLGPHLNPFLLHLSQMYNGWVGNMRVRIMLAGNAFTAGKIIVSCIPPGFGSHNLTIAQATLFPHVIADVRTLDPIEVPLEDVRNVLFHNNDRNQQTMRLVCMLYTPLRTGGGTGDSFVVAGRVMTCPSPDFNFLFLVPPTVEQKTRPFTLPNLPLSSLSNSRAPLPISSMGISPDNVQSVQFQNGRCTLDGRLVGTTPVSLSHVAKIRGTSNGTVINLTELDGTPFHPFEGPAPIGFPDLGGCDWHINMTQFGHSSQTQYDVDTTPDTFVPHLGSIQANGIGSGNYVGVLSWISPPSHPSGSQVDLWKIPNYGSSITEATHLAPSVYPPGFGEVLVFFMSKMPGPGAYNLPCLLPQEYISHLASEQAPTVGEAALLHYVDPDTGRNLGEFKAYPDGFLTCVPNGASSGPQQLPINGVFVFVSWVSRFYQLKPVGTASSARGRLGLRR

[2] = molecular target: T1, norovirus GI.1 VLP (major capsid …); test: filter binding; <10% bound at 1500 nM; FRA: 1 nM 32P-aptamer, 0-1500 nM VLP, 60 min, each aptamer's original selection buffer (M1, M6-2, SMV19, SMV21: PBS pH 7.4; others in Table S1, not in material); FRA temperature not stated; pull-down at room temperature; details: protein: recombinant; chain copies: 180; label: 5'-32P (FRA); B-DNA-like CD

Binder	binding result ([1]; B-DNA-like CD)	further results
B1	no binding	
B2		binding result ([1]; inter- or intramolecular not resolved): no binding
B3	no binding	
B4		binding result [2]: no binding
B5	no binding	
B6		binding result [2]: no binding
B7	no binding	
